The record followed here is US20160136234A1.

Some targets named below: PAK2 (h) (human) (UniProt Q13177); Tie2(Y897S) (h) (human) (UniProt Q02763); CK1γ3 (h) (human) (UniProt Q9Y6M4); Pim-3 (h) (human) (UniProt Q86V86); Abl (M351T) (h) (human) (UniProt P00519); MuSK (h) (human) (UniProt O15146); CK1γ2 (h) (human) (UniProt P78368); mTOR/FKBP12 (h) (human) (UniProt P42345); PAK3 (h) (human) (UniProt O75914); SAPK2b (h) (human) (UniProt Q15759); Rsk1 (h) (human) (UniProt Q15418); CaMKIIδ (h) (human) (UniProt Q13557); CK2 (h) (human) (UniProt P68400); CDK5/p25 (h) (human) (UniProt Q00535).

What all share (test): cell-based or functional assay
The target in the next test is T1, eEF-2K (h) (human) (UniProt O00418).
T1 sequence (looked up): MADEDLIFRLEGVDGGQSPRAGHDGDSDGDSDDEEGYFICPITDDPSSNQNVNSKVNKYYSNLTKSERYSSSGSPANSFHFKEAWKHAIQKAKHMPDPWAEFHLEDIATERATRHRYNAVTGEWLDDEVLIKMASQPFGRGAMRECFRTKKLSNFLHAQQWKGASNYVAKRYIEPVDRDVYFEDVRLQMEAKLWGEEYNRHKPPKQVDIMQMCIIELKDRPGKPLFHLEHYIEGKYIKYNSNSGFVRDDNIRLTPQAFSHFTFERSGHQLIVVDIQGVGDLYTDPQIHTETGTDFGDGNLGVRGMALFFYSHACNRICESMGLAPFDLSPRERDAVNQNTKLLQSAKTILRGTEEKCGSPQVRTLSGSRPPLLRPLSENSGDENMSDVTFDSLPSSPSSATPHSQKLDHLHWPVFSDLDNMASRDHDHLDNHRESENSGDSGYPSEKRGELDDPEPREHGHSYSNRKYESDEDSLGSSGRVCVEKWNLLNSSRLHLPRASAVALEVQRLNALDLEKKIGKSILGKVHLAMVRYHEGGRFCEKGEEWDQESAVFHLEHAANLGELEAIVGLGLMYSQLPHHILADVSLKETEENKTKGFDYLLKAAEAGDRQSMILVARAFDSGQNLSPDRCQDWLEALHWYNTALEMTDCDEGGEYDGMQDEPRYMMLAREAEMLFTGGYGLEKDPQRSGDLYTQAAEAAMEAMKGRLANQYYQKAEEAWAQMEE

The target of another test is T2, NEK3 (h) (human) (UniProt P51956).
T2 sequence (looked up): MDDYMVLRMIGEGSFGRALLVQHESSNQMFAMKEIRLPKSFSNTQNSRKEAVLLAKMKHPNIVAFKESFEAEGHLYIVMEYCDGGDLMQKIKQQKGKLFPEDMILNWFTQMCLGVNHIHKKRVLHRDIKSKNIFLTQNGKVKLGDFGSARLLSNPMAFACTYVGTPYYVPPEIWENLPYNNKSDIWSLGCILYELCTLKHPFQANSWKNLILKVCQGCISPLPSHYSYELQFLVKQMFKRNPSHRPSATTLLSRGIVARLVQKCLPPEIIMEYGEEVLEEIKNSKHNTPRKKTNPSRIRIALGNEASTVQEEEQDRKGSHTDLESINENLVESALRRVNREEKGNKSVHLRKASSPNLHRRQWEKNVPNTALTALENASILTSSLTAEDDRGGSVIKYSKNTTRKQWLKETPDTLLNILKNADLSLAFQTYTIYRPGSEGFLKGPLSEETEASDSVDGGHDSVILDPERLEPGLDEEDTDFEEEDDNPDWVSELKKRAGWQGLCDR

For a further test, the target named is T3, DDR2 (h) (human) (UniProt Q16832).
T3 sequence (looked up): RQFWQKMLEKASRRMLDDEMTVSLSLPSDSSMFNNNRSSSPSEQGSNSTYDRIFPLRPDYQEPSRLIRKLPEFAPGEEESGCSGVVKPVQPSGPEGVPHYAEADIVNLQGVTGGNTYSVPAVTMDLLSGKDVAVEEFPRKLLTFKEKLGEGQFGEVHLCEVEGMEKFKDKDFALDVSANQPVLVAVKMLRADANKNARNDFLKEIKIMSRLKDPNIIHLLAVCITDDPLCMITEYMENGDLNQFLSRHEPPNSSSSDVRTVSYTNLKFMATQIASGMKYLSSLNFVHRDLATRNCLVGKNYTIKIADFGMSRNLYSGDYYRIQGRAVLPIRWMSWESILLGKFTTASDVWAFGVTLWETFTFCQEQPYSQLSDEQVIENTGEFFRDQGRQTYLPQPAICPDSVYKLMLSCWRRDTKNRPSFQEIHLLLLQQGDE

Test [1] deals with Lck (h) activated (human) (UniProt P06239).
For another test, the target named is T4, Axl (h) (human) (UniProt P30530).
T4 sequence (looked up): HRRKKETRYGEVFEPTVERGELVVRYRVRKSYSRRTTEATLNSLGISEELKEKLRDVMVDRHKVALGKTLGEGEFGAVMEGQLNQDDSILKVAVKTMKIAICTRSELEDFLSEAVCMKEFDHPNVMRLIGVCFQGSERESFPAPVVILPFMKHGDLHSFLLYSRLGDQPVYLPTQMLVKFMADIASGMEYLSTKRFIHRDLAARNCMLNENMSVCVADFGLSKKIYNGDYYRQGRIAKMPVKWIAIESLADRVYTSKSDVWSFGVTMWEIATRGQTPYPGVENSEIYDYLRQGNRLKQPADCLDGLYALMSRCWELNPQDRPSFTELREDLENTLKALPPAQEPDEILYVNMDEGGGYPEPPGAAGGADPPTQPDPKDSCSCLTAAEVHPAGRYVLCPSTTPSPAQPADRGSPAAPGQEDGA

Chain of Tie2(Y897S) (h) (human) (Q02763 771-1124 Y897S limits assumed): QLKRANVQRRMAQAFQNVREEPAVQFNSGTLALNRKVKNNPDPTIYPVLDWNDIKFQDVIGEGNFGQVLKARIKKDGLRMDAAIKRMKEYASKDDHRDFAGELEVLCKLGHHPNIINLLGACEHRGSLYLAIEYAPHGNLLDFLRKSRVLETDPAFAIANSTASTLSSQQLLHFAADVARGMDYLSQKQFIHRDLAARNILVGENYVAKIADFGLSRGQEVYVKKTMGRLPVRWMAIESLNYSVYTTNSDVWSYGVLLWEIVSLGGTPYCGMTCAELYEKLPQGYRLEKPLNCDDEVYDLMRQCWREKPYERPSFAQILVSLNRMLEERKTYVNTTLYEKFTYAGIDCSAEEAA
Chain of Rsk1 (h) (human) (Q15418 whole entry): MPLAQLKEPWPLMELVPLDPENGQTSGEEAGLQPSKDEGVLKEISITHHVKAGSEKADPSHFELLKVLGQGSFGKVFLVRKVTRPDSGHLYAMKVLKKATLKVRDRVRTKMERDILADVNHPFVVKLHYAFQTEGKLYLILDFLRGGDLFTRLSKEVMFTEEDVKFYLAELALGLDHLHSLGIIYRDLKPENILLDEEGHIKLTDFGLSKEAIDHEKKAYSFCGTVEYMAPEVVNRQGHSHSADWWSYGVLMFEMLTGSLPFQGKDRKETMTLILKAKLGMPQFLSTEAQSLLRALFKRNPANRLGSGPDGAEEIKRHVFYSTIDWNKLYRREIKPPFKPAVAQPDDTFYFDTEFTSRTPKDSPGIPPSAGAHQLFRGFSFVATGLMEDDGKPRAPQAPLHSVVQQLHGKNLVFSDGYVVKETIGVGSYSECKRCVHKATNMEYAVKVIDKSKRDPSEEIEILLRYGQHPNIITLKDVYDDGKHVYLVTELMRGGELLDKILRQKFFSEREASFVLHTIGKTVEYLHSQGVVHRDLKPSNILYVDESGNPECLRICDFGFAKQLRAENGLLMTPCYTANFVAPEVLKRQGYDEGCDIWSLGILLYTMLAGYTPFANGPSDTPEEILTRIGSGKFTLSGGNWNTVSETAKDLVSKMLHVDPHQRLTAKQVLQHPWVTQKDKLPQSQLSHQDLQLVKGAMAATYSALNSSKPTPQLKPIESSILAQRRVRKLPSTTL
Chain of PAK2 (h) (human) (Q13177 whole entry): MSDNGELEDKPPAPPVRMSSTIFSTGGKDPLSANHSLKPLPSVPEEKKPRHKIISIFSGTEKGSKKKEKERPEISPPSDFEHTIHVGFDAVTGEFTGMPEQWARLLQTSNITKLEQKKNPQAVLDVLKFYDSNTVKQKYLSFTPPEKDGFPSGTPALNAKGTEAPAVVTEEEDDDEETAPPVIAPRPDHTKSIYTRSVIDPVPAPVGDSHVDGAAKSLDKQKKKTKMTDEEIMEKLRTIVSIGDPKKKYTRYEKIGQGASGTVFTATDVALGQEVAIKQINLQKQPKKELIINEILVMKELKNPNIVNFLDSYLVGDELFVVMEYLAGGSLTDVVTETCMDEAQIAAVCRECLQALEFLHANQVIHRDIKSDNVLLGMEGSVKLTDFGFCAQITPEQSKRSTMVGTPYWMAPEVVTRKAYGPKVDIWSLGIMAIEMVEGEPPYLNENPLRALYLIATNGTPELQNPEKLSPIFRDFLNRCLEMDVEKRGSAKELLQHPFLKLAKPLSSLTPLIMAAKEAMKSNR
Chain of mTOR/FKBP12 (h) (human) (P42345 1362-2549 limits assumed, chain 1 of 2): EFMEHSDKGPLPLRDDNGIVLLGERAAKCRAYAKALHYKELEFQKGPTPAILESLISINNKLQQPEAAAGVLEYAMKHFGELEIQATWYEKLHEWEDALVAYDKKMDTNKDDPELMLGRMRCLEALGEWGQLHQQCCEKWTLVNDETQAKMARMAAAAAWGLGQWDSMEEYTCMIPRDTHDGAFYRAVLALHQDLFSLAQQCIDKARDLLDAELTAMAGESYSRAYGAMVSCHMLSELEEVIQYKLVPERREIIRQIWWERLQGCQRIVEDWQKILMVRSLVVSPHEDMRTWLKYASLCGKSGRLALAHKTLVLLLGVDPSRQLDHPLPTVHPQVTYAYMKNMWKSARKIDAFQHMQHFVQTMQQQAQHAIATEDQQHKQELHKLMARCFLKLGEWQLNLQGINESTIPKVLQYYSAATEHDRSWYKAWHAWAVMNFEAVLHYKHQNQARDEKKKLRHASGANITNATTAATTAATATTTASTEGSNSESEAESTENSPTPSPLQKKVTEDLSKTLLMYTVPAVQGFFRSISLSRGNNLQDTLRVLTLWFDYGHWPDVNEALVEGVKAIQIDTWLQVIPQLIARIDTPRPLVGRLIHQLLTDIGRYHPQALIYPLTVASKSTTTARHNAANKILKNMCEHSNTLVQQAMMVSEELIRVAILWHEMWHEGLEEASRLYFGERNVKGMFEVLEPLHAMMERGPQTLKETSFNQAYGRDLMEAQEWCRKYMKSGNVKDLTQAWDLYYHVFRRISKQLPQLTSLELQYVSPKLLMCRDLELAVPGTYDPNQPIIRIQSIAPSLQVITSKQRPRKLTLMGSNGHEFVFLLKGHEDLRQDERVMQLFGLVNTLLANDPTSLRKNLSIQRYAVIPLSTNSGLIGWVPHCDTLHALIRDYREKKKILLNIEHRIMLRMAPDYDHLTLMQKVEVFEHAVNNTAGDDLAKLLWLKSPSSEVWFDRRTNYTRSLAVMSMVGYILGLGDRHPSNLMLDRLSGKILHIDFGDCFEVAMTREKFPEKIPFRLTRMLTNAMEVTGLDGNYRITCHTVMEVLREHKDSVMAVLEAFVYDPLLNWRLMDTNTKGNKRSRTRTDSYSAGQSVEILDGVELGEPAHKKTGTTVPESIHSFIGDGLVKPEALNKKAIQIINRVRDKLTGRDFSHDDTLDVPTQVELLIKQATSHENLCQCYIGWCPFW
Chain of mTOR/FKBP12 (h) (human) (P62942 whole entry, chain 2 of 2, further chain): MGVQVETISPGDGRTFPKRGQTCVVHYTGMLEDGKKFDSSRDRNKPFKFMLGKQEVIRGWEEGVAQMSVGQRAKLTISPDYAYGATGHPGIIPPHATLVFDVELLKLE
Chain of Abl (M351T) (h) (human) (P00519 27-1130 M351T limits assumed): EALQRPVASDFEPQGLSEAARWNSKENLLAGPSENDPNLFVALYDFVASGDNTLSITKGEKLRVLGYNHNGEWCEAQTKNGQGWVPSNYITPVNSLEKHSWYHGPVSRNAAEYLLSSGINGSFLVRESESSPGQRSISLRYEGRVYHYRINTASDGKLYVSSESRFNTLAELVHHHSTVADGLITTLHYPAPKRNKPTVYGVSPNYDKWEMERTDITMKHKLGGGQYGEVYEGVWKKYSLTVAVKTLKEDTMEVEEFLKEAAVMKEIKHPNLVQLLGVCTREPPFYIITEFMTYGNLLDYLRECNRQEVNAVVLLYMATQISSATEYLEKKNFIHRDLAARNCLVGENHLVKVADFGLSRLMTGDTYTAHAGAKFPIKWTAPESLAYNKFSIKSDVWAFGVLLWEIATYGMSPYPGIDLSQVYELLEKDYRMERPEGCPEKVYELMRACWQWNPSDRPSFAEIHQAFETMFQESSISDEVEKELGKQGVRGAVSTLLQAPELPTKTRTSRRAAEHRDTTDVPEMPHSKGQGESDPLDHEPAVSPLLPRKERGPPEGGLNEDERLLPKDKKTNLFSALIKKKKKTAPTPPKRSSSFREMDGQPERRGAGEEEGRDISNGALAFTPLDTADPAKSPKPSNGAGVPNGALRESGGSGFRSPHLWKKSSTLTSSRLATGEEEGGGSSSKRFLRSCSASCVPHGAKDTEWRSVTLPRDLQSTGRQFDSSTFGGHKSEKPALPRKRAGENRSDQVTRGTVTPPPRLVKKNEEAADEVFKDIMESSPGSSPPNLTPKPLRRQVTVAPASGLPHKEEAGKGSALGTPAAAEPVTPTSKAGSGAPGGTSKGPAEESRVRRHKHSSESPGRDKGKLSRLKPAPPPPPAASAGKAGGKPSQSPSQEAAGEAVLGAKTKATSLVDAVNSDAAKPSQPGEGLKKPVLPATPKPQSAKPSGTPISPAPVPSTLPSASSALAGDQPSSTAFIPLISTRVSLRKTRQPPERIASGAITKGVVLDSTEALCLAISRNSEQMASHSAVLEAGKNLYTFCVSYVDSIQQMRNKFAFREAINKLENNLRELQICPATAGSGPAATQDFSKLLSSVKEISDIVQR
Chain of SAPK2b (h) (human) (Q15759 whole entry): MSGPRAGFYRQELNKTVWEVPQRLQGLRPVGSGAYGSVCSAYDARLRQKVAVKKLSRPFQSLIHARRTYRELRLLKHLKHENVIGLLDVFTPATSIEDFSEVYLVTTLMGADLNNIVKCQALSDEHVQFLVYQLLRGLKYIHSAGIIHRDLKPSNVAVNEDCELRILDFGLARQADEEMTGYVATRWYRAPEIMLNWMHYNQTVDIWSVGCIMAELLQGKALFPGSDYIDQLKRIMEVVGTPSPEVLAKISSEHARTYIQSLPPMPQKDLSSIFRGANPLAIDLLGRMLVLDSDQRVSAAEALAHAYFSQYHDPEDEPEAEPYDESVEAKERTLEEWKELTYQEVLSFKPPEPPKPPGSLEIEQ

Turning to MMI-0300 (peptide), the % activity at 100 µM is 65% in the test with PAK2 (h) (human); 91% in the test with eEF-2K (h) (human); 83% with Tie2(Y897S) (h) (human); 92% with NEK3 (h) (human); 125% with CK1γ3 (h) (human); 80% with Pim-3 (h) (human). For the same substance, the % activity at 100 µM in the test with DDR2 (h) (human) is 94%; in the test with Abl (M351T) (h) (human), 90%; in test [1], 243%; with MuSK (h) (human) it was 93%; in the test with CK1γ2 (h) (human) it was 123%; with mTOR/FKBP12 (h) (human), 145%. Besides, the % activity at 100 µM with Axl (h) (human) was found to be 52%; with PAK3 (h) (human) it was 140%; with SAPK2b (h) (human), 81%; with Rsk1 (h) (human), 46%; in the test with CaMKIIδ (h) (human), 1%; with CK2 (h) (human) it was 90%. Further, the % activity at 100 µM in the test with CDK5/p25 (h) (human) worked out at 89%.
